Here are results for 7 molecules from US20090074762A1 (PDL BIOPHARMA, published 2009).

Test [1] addresses T1, TweakR on cells (TweakR-expressing cells, TweakR transfectant cell line, A375 melanoma cells, tumor tissue) (human, UniProt Q9NP84 28-129).
T1 sequence: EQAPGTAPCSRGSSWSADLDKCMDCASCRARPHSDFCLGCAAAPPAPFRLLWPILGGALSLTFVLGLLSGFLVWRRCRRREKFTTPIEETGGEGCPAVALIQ
In words: cell-based or functional assay.

The target of test [2] is T2, soluble form of the extracellular domain of human TweakR (human, UniProt Q9NP84 28-80).
T2 construct: also called soluble TweakR extracellular domain
T2 sequence: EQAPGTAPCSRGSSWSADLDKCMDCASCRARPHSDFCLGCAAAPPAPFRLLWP
The test is described as follows: Biacore; antibody captured by immobilized anti-Fc, soluble TweakR extracellular domain injected. As for the experimental part: The relative binding affinities of various mouse and humanized anti-TweakR antibodies were assessed in a Biacore assay using a soluble form of the extracellular domain of human TweakR. Briefly, goat anti-mouse Fc antibody or goat anti-human Fc was first immobilized to the biosensor surface followed by capture of antibody on the test surface. Subsequently, the soluble form of the extracellular domain of human TweakR was injected to measure binding to, and dissociation from, antibody.
Background: Surface plasmon resonance follows binding to a sensor surface in real time, without labels.

The target of another test is T3, mouse TweakR (mouse, UniProt Q9CR75 28-80, limits assumed).
T3 construct: also called mouse TweakR protein
T3 sequence (looked up): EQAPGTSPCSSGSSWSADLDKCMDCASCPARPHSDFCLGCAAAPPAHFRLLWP
The test is described as follows: binding assay read as OD650, single bar per antibody and target; format and antibody concentration not given.

The target of a further test is human TweakR (R56P) (human, UniProt Q9NP84 28-80, limits assumed). The description is as above.

B1: humanized anti-TweakR antibody PDL400 (antibody, V domains shown)
VH: QVQLVQSGAEVKKPGASVKISCKVSGYTFTDFIIAWVKQAPGKGLEWIGEIYPGTGRTYYSEKFRGKATLTADKSTSTAYMELSSLRSEDTAVYYCARRTIYYDYDGDYWGQGTTVTVSS
VL: DIVMTQSPLSLPVTPGEPASISCRSSKSLLHSNGITYLYWYLQKPGQSPQLLIYQMSNLASGVPDRFSSSGSGTDFTLKISRVEAEDVGVYYCAHNLELPWTFGGGTKVEIK
notes: constant regions not expressly stated
By Kd is commonly meant a measure of binding affinity in units of concentration. The low end stands for higher affinity, the high end for lower affinity. Take B1: the “agonist activity (IL-8 release assay)” value in test [1] is about 8%. For the same molecule, in test [2], the Kd came out at 0.58 nM.

B2: murine anti-TweakR antibody ITEM-1 (antibody, V domains shown)
VH: EVKLEESGGGLVQPGGSMKLSCVASGFSFSNYWMNWVRQSPEKGLEWVAEIRLKSNNYATHYAESVKGRFTISRHDSKSSVYLQMNNLRAEDTGIYYCTRAYADYFDYWGQGTTLTVSS
VL: DIVLTQSPASLVVSLGQRATISCRASQSVSTSTYSYMHWYQQKPGQPPKILIKYASNLESGVPARFSGSGSGTDFTLNIHPVEEEDTATYYCQHSWEIPYTFGGGTKLEIKR
For the molecule B2, in test [1], the “agonist activity (IL-8 release assay)” value was about 25%.

B3: murine anti-TweakR antibody 136.1 (antibody, V domains shown)
VH: EVKLEESGGGLVQPGGSMKLSCVASGFTFNNYWMSWVRQSPEKGLEWLAEIRLKSDNYATHYAESVKGKFTISRDDSKSRLYLQMNNLRAENTGIYYCTGGFADYFDYWGQGTTLTVSS
VL: DIVLTQSPASLTVSLGQRATISCRASQSVSTSSYSYMQWYQQRPGQPPKLLIKYATNLDSGVPARFSGSGSGTDFTLNIHPVEEEDAATYYCQHSWEIPYTFGGGTKLEIKR
notes: Mouse monoclonal antibody
With B3, in test [1], the “agonist activity (IL-8 release assay)” value was about 278%. In test [2], this molecule came in with a Kd of 0.68 nM.

B4: murine anti-TweakR antibody ITEM-3 (antibody, V domains shown)
VH: EVKLEESGGGLVQPGGSMKLSCVVSGLTFSRYWMSWVRQSPEKGLEWVAEIRVKSDNYATTHYAESVKGKFTVSRDDSKSRLYLQMSSLRPEDTGIYYCIGYYADAMDYWGQGTSVTVSS
VL: DIVLTQSPASLVVSLGQRATISCRASQSVSTSSYSYMHWYQQKPGQPPKLLIKYASKLDSGVPARFSGSGSGTDFTLNIHPVEEEDTATYYCQHSWEIPWTFGGGTKMEIKR
On to B4, for which, in test [1], the “agonist activity (IL-8 release assay)” value was about 37%.

B5: murine anti-TweakR antibody 18.3.3 (antibody, V domains shown)
VH: EVKLGESGGGLVQPGGSMKLSCVASGFPFTKYWMNWVRQSPEKGLEWVAEIRLKSDNYATHYAESAKGRFTISRDDSRSSVYLQMNNLRAEDTAIYYCSPTYADTMDYWGQGTSVTVSS
VL: DIVLTQSPASLAVSLGQRATISCKASQSVSTSTYSYMQWYQQRPGQSPKLLIKYASKLDSGVPARFSGSGSGTDFTLNIHPVEEEDTATYYCQHSWELPYTFGGGTRLEIKR
notes: Mouse monoclonal antibody
For B5, the “agonist activity (IL-8 release assay)” value in test [1] is about 14%. For the same molecule, the binding result with mouse TweakR and with human TweakR (R56P) was “binds” in each case. Further, the Kd in test [2] was 0.23 nM.

B6: humanized anti-TweakR antibody PDL192 (antibody, human IgG1, V domains shown)
VH: EVQLVESGGGLVQPGGSLRLSCAASGFTFSSYWMSWVRQAPGKGLEWVAEIRLKSDNYATHYAESVKGRFTISRDDSKNSLYLQMNSLRAEDTAVYYCTGYYADAMDYWGQGTLVTVSS
VL: DIQMTQSPSSLSASVGDRVTITCRASQSVSTSSYSYMHWYQQKPGKAPKLLIKYASNLESGVPSRFSGSGSGTDFTLTISSLQPEDFATYYCQHSWEIPYTFGGGTKVEIK
As to B6, in test [1], the “agonist activity (IL-8 release assay)” value was about 25%.

B7: murine anti-TweakR antibody 19.2.1 (antibody, mouse IgG2a, V domains shown)
VH: EVKLEESGGGLVQPGGSMKLSCVASGFTFSSYWMSWVRQSPEKGLEWVAEIRLKSDNYATHYAESVKGKFTISRDDSKSRLYLQMNSLRAEDTGIYYCTGYYADAMDYWGQGTSVTVSS
VL: DIVLTQSPASLAVSLGQRATISCRASQSVSTSSYSYMHWYQQKPGQPPKLLIKYASNLESGVPARFSGSGSGTDFTLNIHPVEEEDTATYYCQHSWEIPYTFGGGTKLEIK
With B7, the “agonist activity (IL-8 release assay)” value in test [1] is about 39%. Also, in test [2], the affinity, expressed as Kd, was 7.12 nM.
